The test concerns the target c-Kit (CD117) on human undifferentiated blood cells (UT-7, M07e, cord blood-derived CD34 positive cells) (human, UniProt P10721 26-976). Put plainly: cell-based or functional assay.

Sequence of c-Kit (CD117) on human undifferentiated blood cells (UT-7, M07e, cord blood-derived CD34 positive cells) (P10721 26-976): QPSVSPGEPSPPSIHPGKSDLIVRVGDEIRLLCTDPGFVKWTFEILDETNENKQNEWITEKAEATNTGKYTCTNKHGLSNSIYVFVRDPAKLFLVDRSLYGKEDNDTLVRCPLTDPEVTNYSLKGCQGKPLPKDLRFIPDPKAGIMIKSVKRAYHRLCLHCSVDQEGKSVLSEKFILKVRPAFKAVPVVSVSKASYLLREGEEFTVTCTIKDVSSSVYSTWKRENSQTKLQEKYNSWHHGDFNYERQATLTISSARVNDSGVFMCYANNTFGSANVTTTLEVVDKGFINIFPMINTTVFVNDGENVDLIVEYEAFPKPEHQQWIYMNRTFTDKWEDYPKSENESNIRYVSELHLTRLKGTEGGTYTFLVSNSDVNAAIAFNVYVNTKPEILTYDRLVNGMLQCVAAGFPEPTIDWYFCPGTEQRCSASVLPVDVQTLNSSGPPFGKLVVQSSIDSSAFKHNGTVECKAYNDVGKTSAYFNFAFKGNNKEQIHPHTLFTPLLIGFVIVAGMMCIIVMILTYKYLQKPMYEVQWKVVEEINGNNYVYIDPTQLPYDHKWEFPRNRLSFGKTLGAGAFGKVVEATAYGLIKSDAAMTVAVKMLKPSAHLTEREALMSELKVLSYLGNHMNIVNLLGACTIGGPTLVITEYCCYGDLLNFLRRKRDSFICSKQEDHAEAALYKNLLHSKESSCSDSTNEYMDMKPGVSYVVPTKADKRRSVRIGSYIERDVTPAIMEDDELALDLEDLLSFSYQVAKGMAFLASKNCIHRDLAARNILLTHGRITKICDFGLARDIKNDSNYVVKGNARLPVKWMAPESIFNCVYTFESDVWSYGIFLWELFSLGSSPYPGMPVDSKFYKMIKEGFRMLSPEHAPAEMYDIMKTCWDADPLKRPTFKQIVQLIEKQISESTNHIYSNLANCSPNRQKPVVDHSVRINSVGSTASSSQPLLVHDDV

B1: polypeptide (CARex-mSCF), being CAR extracellular region linked with mouse SCF (other)
chain: LSITTPEEMIEKAKGETAYLPCKFTLSPEDQGPLDIEWLISPADNQKVDQVIILYSGDKIYDDYYPDLKGRVHFTSNDLKSGDASINVTNLQLSDIGTYQCKVKKAPGVANKKIHLVVLVKPSGARCYVDGSEEIGSDFKIKCEPKEGSLPLQYEWQKLSDSQKMPTSWLAEMTSSVISVKNASSEYSGTYSCTVRNRVGSDQCLLRLNVVPPSNKAHHHHHHSASASAKEICGNPVTDNVKDITKLVANLPNDYMITLNYVAGMDVLPSHCWLRDMVIQLSLSLTTLLDKFSNISEGLSNYSIIDKLGKIVDDLVLCMEENAPKNIKESPKRPETRSFTPEEFFSIFNRSIDAFKDFMVASDTSDCVLSSTLGPEKDSRVSVTKPFMLPPVA
Consider B1, for which the “GFP positive cell ratio, M07e cells, Ax1CAgfp at MOI 100 (adenovirus alone 0.5%)” value worked out at 82%.

For the origin of these results see patent US20030092068A1 (ASAHI KASEI, published 2003).
